Assay [1] deals with Pf34 bait (Pf34 ectodomain with CD4d3+4, human Fc and C-tag) (Plasmodium falciparum). Nature of the assay: SPR. On the technique in general: SPR reads the build-up and loss of mass on a sensor chip optically.
The target of assay [2] is PfRON6 C-terminal bait (PfRON6 residues 537-950 with CD4d3+4, human Fc and C-tag) (Plasmodium falciparum). Nature of the assay: SPR.
For assay [3], the target named is Pf34 bait (P. falciparum Pf34 ectodomain, human Fc-tagged dimeric bait) (P. falciparum). Nature of the assay: SPR.
Assay [4] has as its target Izumo (Mus musculus) (UniProt Q9D9J7). The note with it: cited from earlier work.
The target in assay [5] is Pf34 bait (P. falciparum Pf34 ectodomain, human Fc-tagged dimeric bait) (P. falciparum).

Consider 5 substances from PMC11098746.

pKd: −log10 of the molar value. Several values for one entry are separate records, joined by “and”; a condition that tells them apart may be missing. Equal entries are not always repeated.

The term pKd denotes −log10 of the Kd, conventionally taken in molar units. For orientation: kon means the second-order rate constant of association. Read a high kon as faster complex formation. The term koff denotes a measure of how fast the partners let go of each other. A high value points to a short-lived complex.

Izumo (Mus musculus), sequence (Q9D9J7 22-319): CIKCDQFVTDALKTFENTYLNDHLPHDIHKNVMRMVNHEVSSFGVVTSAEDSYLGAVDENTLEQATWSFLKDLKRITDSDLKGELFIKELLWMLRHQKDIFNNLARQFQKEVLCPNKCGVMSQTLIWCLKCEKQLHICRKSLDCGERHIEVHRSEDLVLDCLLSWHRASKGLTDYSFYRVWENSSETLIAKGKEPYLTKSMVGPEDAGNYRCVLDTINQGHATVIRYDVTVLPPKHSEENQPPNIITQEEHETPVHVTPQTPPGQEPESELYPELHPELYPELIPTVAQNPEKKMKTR
Juno, sequence (Q9EQF4 20-222): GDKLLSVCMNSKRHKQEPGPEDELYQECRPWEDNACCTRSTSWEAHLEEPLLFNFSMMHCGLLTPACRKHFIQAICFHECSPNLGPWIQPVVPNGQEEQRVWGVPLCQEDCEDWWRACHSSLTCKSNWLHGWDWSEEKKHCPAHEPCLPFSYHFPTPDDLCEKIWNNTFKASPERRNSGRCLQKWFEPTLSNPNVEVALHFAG

On to “FGFR4-CD4-Bio-His (purified monomeric human FGFR4 ectodomain) (from UniProt P22455 22-369) (receptor)”, for which, in assay [1], the pKd was 4.33 and 4.85 and 4.51; the kon is 16000 M⁻¹ s⁻¹ and 44000 M⁻¹ s⁻¹ and 30000 M⁻¹ s⁻¹.
In assay [2], “Pf34-CD4-Bio-His (purified monomeric Pf34) (natural protein)” gave a pKd of 5.54, a koff of 0.0015 s⁻¹ and a kon of 520 M⁻¹ s⁻¹.
“FGFR4-CD4-Bio-His (purified monomeric FGFR4 ectodomain) (from UniProt P22455 22-369) (receptor)”: in assay [3], the pKd was 4.34 and 4.40; the t1/2 was < 1 s and 0.4 s.
As for Juno (from UniProt Q9EQF4), in assay [4], the pKd is 4.92.
On to “FGFR4 prey (human fibroblast growth factor receptor 4 ectodomain, pentameric 5xNanoLuc-tagged prey) (from UniProt P22455 22-369)”, for which, in assay [5], the inhibition of NF54 sporozoite invasion of primary human hepatocytes (ISI assay) by LD1 mAb, up to 25 µg/mL was 20% and the inhibition of NF54 sporozoite invasion of primary human hepatocytes (ISI assay) by anti-FGFR4 rabbit pAbs, up to 2 mg/mL was 20%.
